According to paper PMC3544819, “Pax6 Interactions with Chromatin and Identification of Its Novel Direct Target Genes in Lens and Forebrain”:

B1: Kif1b site 1 (dsDNA)
DNA 1: ATGACCAATAGTAAAGCGTGGCTGGAAGAGGGG
DNA 2: CCCCTCTTCCAGCCACGCTTTACTATTGGTCAT
B2: Kif1b site 2 (dsDNA)
DNA 1: TAGGAAGCTTTCTGCTGGATACACTCATGCCTGAGCGTG
DNA 2: CACGCTCAGGCATGAGTGTATCCAGCAGAAAGCTTCCTA

Target: Pax6 PD/HD (UniProt P63015 4-269)
Assay: EMSA; not given in the material
Settings: protein: recombinant; blunt

Chain of Pax6 PD/HD (P63015 4-269): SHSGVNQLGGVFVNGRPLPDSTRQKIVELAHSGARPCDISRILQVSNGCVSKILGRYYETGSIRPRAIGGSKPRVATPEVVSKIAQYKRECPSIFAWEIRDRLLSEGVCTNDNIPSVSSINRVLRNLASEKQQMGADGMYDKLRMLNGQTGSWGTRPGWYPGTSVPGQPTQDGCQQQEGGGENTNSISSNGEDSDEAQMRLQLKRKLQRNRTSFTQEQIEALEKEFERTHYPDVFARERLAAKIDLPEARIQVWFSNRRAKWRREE

Row | Binder | binding result
1 | B1 | binds
2 | B2 | binds
